# According to publication PMC2997501, “Different Residues on the Surface of the Methanothermobacter thermautotrophicus MCM Helicase Interact with Single- and Double-Stranded DNA” (Archaea, 2010):
# Substitutions are numbered along the chain they refer to. In names and notes the source's numbering stands.
# T1: MCM P210G (Methanothermobacter thermautotrophicus, UniProt O27798 1-666, P210G)
# T1 sequence: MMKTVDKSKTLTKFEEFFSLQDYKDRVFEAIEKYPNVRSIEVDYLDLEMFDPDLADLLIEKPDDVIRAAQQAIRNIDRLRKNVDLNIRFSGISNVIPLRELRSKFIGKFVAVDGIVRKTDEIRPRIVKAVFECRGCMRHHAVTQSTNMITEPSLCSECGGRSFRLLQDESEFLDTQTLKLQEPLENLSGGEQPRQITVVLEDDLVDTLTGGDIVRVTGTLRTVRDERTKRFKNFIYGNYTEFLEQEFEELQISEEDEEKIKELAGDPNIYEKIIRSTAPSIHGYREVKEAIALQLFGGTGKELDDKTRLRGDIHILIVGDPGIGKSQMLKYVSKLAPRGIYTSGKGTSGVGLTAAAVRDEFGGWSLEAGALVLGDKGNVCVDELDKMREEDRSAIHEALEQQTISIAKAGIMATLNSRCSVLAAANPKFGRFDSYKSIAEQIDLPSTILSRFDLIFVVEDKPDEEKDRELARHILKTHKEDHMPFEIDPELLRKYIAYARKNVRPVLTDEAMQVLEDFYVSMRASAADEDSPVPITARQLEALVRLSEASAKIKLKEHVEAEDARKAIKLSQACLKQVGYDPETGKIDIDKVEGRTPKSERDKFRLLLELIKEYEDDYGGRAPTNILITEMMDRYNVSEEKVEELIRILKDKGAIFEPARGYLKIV
# T2: MCM G218A (Methanothermobacter thermautotrophicus, UniProt O27798 1-666, G218A)
# T2 sequence: T1 sequence with G210P, G218A
# T3: MCM Q176A (Methanothermobacter thermautotrophicus, UniProt O27798 1-666, Q176A)
# T3 sequence: T1 sequence with Q176A, G210P
# T4: MCM G211A (Methanothermobacter thermautotrophicus, UniProt O27798 1-666, G211A)
# T4 sequence: T1 sequence with G210P, G211A
# B1: 49-mer dsDNA (dsDNA)
# DNA 1: GCAGATAACAGTTGTCCTGGAGAACGACCTGGTTGACACCCTCACACCC
# DNA 2: GGGTGTGAGGGTGTCAACCAGGTCGTTCTCCAGGACAACTGTTATCTGC
# B2: Methanothermobacter thermautotrophicus MCM protein, wild-type (enzyme, UniProt O27798 1-666, looked up)
# chain: T1 sequence with G210P
# notes: MCM helicase of Methanothermobacter thermautotrophicus, full-length enzyme, cloned in pET-21a (NdeI/XhoI); the text speaks of hexamers, dodecamers and filaments in equilibrium (cited work); also called wild-type enzyme; minichromosome maintenance helicase; source: E. coli DE3 codon plus cells, purified on a Ni-column
# B3: Methanothermobacter thermautotrophicus MCM protein, G211A mutant (enzyme, UniProt O27798 1-666, looked up)
# chain: T1 sequence with G210P, G211A
# notes: MCM helicase of Methanothermobacter thermautotrophicus, derivative of the full-length enzyme; source: E. coli DE3 codon plus cells, purified on a Ni-column
# B4: Methanothermobacter thermautotrophicus MCM protein, V214A mutant (enzyme, UniProt O27798 1-666, looked up)
# chain: T1 sequence with G210P, V214A
# notes: as for B3
# B5: Methanothermobacter thermautotrophicus MCM protein, P210G mutant (enzyme, UniProt O27798 1-666, looked up)
# chain: T1 sequence
# notes: as for B3
# B6: Methanothermobacter thermautotrophicus MCM protein, PG210,211GA double mutant (enzyme, UniProt O27798 1-666, looked up)
# chain: T1 sequence with G211A
# notes: as for B3
# B7: Methanothermobacter thermautotrophicus MCM protein, G218A mutant (enzyme, UniProt O27798 1-666, looked up)
# chain: T1 sequence with G210P, G218A
# notes: as for B3
# B8: Methanothermobacter thermautotrophicus MCM protein, D212N mutant (enzyme, UniProt O27798 1-666, looked up)
# chain: T1 sequence with G210P, D212N
# notes: as for B3
# B9: Methanothermobacter thermautotrophicus MCM protein, Q176A mutant (enzyme, UniProt O27798 1-666, looked up)
# chain: T1 sequence with Q176A, G210P
# notes: as for B3
# Assays:
# MCM P210G = target: T1, MCM P210G; assay: filter binding; 10 mM Mg2+, no ATP; 25 mM Hepes-NaOH pH 7.5, 2 mM DTT, 10 mM MgCl2, 100 ug/ml BSA, 50 fmol 32P-DNA in 20 ul, 10/30/90 nM MCM monomer (25 nM for the ATP test), 60 C, 10 min; nitrocellulose filter washed with 20 mM Tris-HCl pH 7.5; conditions: protein: recombinant; tags: C-terminal His6; chain copies: 6; label: 32P (T4 PNK, 5' end); blunt
# MCM G218A = target: T2, MCM G218A; assay: as above; conditions: protein: recombinant; tags: C-terminal His6; chain copies: 6; label: 32P (T4 PNK, 5' end); blunt
# MCM Q176A = target: T3, MCM Q176A; assay: as above; conditions: protein: recombinant; tags: C-terminal His6; chain copies: 6; label: 32P (T4 PNK, 5' end); blunt
# MCM G211A = target: T4, MCM G211A; assay: as above; conditions: protein: recombinant; tags: C-terminal His6; chain copies: 6; label: 32P (T4 PNK, 5' end); blunt
# [1] = target: the molecule itself; assay: SEC; 100 micrograms of protein on a superose-6 column (HR10/30); 20 mM Tris-HCl pH 7.5, 150 mM NaCl, 10% glycerol; 22°C, 0.2 ml/min; A280; size markers thyroglobulin, ferritin, albumin, ovalbumin
binder,measurement,setting,value
B1,binding signal,MCM P210G,~50 % reduction vs wild-type
same,binding signal,MCM G218A,~25 % reduction vs wild-type
same,binding signal,MCM Q176A,~50 % reduction vs wild-type
same,binding signal,MCM G211A,~50 % reduction vs wild-type
B2,binding result,[1],binds
B3,binding result,[1],binds
B4,binding result,[1],binds
B5,binding result,[1],binds
B6,binding result,[1],binds
B7,binding result,[1],binds
B8,binding result,[1],binds
B9,binding result,[1],binds
